Source: patent US9259432

Target: S100B protein
Experiment: tryptophan fluorescence quenching, S100B titrated into 5.0 µM peptide, 0.1 mM CaCl2, 12° C.

Sequence of S100B protein (P02638 2-92): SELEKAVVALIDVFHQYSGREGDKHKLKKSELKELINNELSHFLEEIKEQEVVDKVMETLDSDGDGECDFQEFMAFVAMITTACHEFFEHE

TRTK12 peptide showed a Kd of 211 nM.
